From US20220064331A1 (Genentech, published 2022)
Changes are numbered by the printed parent chain.

T1: rat KLB (+N-ter FLAG) (rat, UniProt Q99N32 53-989 (mouse entry))
T1 construct: expressed from KLB cDNA on HEK293T cells and read by FACS
T1 chain: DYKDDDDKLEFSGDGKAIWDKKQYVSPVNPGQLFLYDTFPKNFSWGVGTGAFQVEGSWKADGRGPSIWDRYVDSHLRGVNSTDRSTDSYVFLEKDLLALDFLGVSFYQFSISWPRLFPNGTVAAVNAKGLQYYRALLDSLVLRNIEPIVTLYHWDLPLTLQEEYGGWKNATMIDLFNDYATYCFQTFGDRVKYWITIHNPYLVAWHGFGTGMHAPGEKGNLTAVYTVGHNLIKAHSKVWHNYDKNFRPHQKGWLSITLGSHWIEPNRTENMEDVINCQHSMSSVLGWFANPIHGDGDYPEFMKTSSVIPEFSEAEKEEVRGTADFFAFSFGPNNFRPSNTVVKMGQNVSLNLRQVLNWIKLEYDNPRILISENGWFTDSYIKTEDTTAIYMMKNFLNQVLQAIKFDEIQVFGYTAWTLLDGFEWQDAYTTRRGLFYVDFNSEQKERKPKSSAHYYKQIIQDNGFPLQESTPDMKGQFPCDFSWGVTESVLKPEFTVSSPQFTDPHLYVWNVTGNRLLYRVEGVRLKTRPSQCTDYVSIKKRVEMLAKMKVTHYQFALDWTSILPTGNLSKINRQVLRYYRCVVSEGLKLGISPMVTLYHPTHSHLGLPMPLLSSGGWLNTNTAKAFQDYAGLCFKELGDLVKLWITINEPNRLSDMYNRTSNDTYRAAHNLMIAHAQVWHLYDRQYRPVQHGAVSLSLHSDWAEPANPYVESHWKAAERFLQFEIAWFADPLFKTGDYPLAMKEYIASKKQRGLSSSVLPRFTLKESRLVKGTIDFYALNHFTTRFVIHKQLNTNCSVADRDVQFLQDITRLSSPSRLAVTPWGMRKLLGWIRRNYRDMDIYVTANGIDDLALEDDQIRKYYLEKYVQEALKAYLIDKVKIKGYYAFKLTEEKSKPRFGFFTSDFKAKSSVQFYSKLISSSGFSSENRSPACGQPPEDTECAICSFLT

T2: rhesus monkey KLB (+N-ter FLAG) (rhesus monkey, UniProt Q86Z14 53-992 (human entry))
T2 construct: expressed from KLB cDNA on HEK293T cells and read by FACS
T2 chain: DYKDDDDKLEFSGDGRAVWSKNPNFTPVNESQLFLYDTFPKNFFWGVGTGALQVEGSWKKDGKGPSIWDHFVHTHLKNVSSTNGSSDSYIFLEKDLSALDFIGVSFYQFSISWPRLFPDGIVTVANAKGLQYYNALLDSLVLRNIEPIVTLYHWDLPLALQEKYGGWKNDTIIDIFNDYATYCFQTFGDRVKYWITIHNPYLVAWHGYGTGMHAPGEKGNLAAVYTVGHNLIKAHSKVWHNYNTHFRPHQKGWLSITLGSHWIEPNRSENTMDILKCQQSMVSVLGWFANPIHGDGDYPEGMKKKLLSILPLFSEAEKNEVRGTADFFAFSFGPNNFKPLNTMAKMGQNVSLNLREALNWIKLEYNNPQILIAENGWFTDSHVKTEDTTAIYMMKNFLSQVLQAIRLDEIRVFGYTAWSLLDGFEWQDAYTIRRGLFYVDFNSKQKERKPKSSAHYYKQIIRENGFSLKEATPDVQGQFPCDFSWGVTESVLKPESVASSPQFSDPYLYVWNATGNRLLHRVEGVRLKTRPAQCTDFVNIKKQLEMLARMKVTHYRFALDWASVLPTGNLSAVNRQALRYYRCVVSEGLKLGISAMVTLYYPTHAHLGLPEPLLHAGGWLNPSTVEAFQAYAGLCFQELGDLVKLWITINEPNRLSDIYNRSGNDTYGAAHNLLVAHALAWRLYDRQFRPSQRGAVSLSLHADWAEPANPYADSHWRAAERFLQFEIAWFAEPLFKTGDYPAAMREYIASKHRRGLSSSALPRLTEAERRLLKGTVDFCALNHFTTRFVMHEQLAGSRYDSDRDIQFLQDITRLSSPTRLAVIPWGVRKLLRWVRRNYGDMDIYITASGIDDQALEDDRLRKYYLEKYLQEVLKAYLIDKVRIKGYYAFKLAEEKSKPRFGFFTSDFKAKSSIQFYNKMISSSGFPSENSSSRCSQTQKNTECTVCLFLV

T3: mouse KLB (mouse, UniProt Q99N32 53-990)
T3 construct: expressed from KLB cDNA on HEK293T cells and read by FACS; also called msKLB
T3 sequence: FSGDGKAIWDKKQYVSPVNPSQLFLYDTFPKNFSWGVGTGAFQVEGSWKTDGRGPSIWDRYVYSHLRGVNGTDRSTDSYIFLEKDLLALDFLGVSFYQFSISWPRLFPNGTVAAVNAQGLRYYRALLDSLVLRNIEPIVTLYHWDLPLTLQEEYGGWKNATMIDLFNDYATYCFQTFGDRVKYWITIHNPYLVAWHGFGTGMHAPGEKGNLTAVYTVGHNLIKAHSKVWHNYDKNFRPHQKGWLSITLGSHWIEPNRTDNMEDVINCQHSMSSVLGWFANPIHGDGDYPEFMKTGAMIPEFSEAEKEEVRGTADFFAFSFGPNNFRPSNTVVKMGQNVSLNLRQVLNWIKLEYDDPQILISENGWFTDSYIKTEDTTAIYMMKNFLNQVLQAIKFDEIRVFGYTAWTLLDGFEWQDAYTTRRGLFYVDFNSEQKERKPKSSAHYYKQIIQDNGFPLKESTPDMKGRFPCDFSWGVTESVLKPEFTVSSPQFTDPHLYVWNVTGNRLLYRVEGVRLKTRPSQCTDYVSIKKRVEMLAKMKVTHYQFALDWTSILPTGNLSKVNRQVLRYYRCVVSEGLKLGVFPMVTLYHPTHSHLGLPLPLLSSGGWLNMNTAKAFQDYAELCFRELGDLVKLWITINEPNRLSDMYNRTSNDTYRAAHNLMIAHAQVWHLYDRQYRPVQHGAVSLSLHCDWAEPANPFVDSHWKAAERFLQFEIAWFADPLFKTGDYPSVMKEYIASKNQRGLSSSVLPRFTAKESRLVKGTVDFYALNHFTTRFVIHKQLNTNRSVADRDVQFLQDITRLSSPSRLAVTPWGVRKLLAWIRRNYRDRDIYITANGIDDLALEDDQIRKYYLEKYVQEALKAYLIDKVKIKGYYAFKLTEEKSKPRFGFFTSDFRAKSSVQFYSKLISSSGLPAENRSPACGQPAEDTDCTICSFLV

B1: 14C6 (antibody, V domains shown)
VH: QIQLQQSGAELMKPGASVRMSCKASGYTFSSYWIEWVKQRSGHGLEWIGEIFPGGGSTIYNENFRDKATFTADTSSNTAYMQLSSLTSEDSAVYFCARRGYYDAAWFDYWGQGTLVTVSA
VL: QIVLTQSPAIMSASPGERVTLTCSASSSLSSSYLYWYQQKPGSSPKLWIYGASNLASGVPGRFSGSGSGTSYSLTISSMEAEDAASYFCHQWSSYPLTFGSGTKLELK
notes: murine hybridoma-derived anti-KLB antibody
B2: 8H7 (antibody, V domains shown)
VH: QVQLQQPGAEIVKPGASVRLSCKASGYSFTSYWIHWVKQRPGQGLEWIGEIDPSVSNSNYNQKFKGKATLTADKSSSTAYMQLSGLTSEDSAVYFCVRLGVMVYGSSPFWFAYWGQGTLVTVSA
VL: DIVMTQSQKFMSTSVGDRVSITCKASQFVSDAVAWYQQKPGQSPKLLICSASYRYTGVPDRFTGSGSGTDFTFTISSVRTEDLAVYYCQQHYIVPYTFGGGTTLEIE
notes: as for B1
B3: 21H3 (antibody, V domains shown)
VH: B2 VH
VL: B2 VL
notes: as for B1
B4: 5F8 (antibody, V domains shown)
VH: EVQLQQSGTELVRPGASVKLSCTSSDFNIKDTYIHWVKQRPEQGLDWLGRIDPANGNTKYDPKFQGKAAMTSDTSSNTAYLRLSSLTSEDTAVYYCASSGNYGAMDYWGQGTSVTVSS
VL: ESVLTQSPALMSASLGEKVTMTCRASSSVNHMYWYQQKSDASPKLWIYYTSTLAPGVPARFSGSGSGNSYSLTISSMEGEDAATYYCQQFTISPSMYTFGGGTKLEIK
notes: as for B1
B5: 12A11 (antibody, V domains shown)
VH: EVKFLESGGGLVQPGGSLRLSCAVSGIDFSRYWMSWVRQAPGKGLEWIGEISPDSSTINYTPSLKDKFVISRDNAKNTLYLQMSKVRSADTALYYCARPSPALDYWGQGTLVTVSA
VL: DIVMTQSPATLSVTPGDRVSLSCRASQSISDYVYWYQQKSHESPRLLIIYASQSISGIPSRFSGSGSGSDFTLSINSVEPEDVGVYYCQNGHNFPYTFGGGTKLEIK
notes: murine hybridoma-derived anti-KLB antibody; also called KLBmAb2
B6: 24A1 (antibody, V domains shown)
VH: QVQLKQSGAELVRPGTSVTLSCKASGYTFTDYEMHWMKQTPVYGLEWIGAIWPENADSVYNQKFKGKVTLTADKSSSTAYMDLRSLTSEDSAVYYCTREGGNYWGQGTTLTVSS
VL: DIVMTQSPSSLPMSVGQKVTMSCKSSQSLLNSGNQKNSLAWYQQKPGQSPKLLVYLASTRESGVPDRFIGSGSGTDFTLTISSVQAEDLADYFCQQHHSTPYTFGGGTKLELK
notes: as for B1
B7: 8C5 (antibody, V domains shown)
VH: QVQLKQSGPGLVQPSQSLSVACTVSDFSLTTYGVHWVRQSPGKGLEWLGVIWSGGSTDYNAAFISRLTISKDNSKSQVFFKMNSLQTTDTAIYYCARDYGSTYVDAIDYWGQGTSVTVSS
VL: DIVLTQSPTSLAVSLGQRATISCRASESVESYGNRYMTWYQQKPGQPPKLLIYRAANLQSGIPARFSGSGSRTDFTLTIDPVEADDVATYYCQQSNEDPWTFGGGTKVEIK
notes: murine hybridoma-derived anti-KLB antibody; also called KLBmAb1
B8: 12B8 (antibody, V domains shown)
VH: QIQLVQSGPELKKPGETAKISCKASGYAFSNYGMNWVKQAPGKDLKWMGWIDTDTGEATYTDDFKGRFVFSLETSASTAYLQINNLKNEDMATYFCAREEYGLFGFPYWGHGTLVTVSA
VL: DIQMTQSSSSFSVSLGDRVTITCKASEDIYNRLAWYQQKPGSAPRLLISAATSLETGVPSRFSGSGSGKDYTLSITSLQTEDVATYYCQQYWSNPLTFGAGTKLEIK
notes: as for B1
B9: 8E1 (antibody, V domains shown)
VH: EVQLQQSGAELVKPGASVKLSCTAADFNIKDTYMHWVKQRPEQGLEWIGRIDPSNGNAKYDPKFQGKASITADSSSNTAYLHLSSLTSEDTAVYYCASRALGNGYALGYWGQGTSVTVSS
VL: DIQMTQSSSYLSVSLGGSVTITCKASDHINNWLAWYQQKPGNAPRLLIYGTTNLETGVPSRFSGSGSGRDYILSITSLQSEDVASYYCQQYWNTPFTFGSGTKLEIK
notes: as for B1
B10: 25F7 (antibody, V domains shown)
VH: EVQLQQSGAELLKPGASVRLSCTASGFNIQDTFTHWVRQRPEQGLEWIGRIDPSNGNTKYDPKFQGKAKILADTSSNTAYLQLIGLTSEDTAVYYCASRALGNGYAMDYWGQGTSVTVSS
VL: B9 VL with S18R, Y49S, T51A, T52S, V58I, R69K, I72T, S74T, S80T, S85T
notes: as for B1

Target: T1, rat KLB (+N-ter FLAG)
Assay: FACS on transfected HEK293T cells
Protocol: (§1) Species cross reactivity of the disclosed anti-KLB antibodies were analyzed by FACS analysis using KLB cDNA from mouse, rat, rabbit, cynomolgus monkey and rhesus monkey cloned into pRK mammalian expression vectors transiently transfected into HEK293T cells. The KLB extracellular domain polypeptide sequences that were expressed are as follows: […]

Row | binding result | Binder
1 | binds | B1
2 | no binding | B2
3 | no binding | B3
4 | no binding | B4
5 | no binding | B5
6 | binds | B6
7 | binds | B7
8 | no binding | B8
9 | no binding | B9
10 | no binding | B10

Target: T2, rhesus monkey KLB (+N-ter FLAG)
Assay: FACS on transfected HEK293T cells
Protocol: as §1

Row | binding result | Binder
11 | binds | B1
12 | binds | B2
13 | binds | B3
14 | binds | B4
15 | binds | B5
16 | binds | B6
17 | binds | B7
18 | binds | B8
19 | binds | B9
20 | binds | B10

Each binder was assayed against T3, mouse KLB (assay: FACS on transfected HEK293T cells).
Protocol: as §1

Row | binding result | Binder
21 | binds | B1
22 | no binding | B4
23 | binds | B6
24 | binds | B7
25 | no binding | B8
26 | no binding | B9
27 | no binding | B10
